Assay results reported in patent publication US20030236190A1 (published 2003).
Residue numbers refer to the chain shown, from its start. In names and notes the source's numbering stands. Non-standard residues stand in square brackets, D forms with d. No end group written: not given here. *: point of attachment. Biotin = O=C1N[C@H]2[C@H](CS[C@H]2CCCCC(=O)*)N1; Bpa = N[C@@H](Cc1ccc(C(=O)c2ccccc2)cc1)C(=O)O; Tic = O=C(O)[C@@H]1Cc2ccccc2CN1; Ac6c = NC1(C(=O)O)CCCCC1

B1: S533 (peptide)
peptide: LDQEWAQVQCEVYGRGCPSESFYDWFERQL
B2: S498 (peptide)
peptide: B1 peptide with W5A, Q7W
B3: S499 (peptide)
peptide: B1 peptide with Q7A
B4: S502 (peptide)
peptide: B1 peptide with Q7W, E11A
B5: S504 (peptide)
peptide: B1 peptide with Q7W, Y13A
B6: S495 (peptide)
peptide: B1 peptide with D2A, Q7W
B7: S497 (peptide)
peptide: B1 peptide with E4A, Q7W
B8: S536 (peptide)
peptide: B1 peptide with D2E, Q3E, Q9E
B9: S503 (peptide)
peptide: B1 peptide with Q7W, V12A
B10: S580 (peptide)
peptide: SLEEEWAQVECEVYGRGCXESFYDWFERQLG
modifications: not fully specified; X19 = βturn (unit not explained)
B11: S510 (peptide)
peptide: SLEEEWAQVECEVYGRGCPSGGSGGSGLLDESFYHWFDRQLR
B12: S521 (peptide)
peptide: HLCVLEELFWGASLFGYCSGGSLDESFYDWFERQL
B13: S564 (peptide)
peptide: SLEEEWAQIQCEVWGRCSESFYDWFERQL
B14: S584 (peptide)
peptide: SLEEEWAQIECEVWGRGCPKGFYGWFRRRRG
B15: S572 (peptide)
peptide: SLEEEWAQIEEVWGRSESFYDWFERQLG
B16: S570 (peptide)
peptide: SLEEEWAQIEEVWGRPSESFYDWFERQLG
B17: S571 (peptide)
peptide: SLEEEWAQIEEVWGRGSESFYDWFERQLG
B18: S523 (peptide)
peptide: WLDQEWAWVQCEVYGRGCPSDSDWAGYEWFEEQLD
B19: S557 (peptide)
peptide: SLEEEWAQIECEVYGRGCPSESFYDWFERQL
B20: S530 (peptide)
peptide: B19 peptide with I9V
B21: S558 (peptide)
peptide: B19 peptide with Y14W
B22: S606 (peptide)
peptide: B19 peptide with E10Q, Y14W
B23: S517 (peptide)
peptide: SIEEEWAQIKCDVWGRGCPSESFYDWFERQL
B24: S534 (peptide)
peptide: B19 peptide with Q8W, I9V, E10Q
B25: S581 (peptide)
peptide: SLEEEWAQIESEVWGRXESFYDWFERQLG
modifications: X17 = βturn (unit not explained)
B26: S486 (peptide)
peptide: LDQEWAWVQCVYGRGCPSESFYDWFERQLG
B27: S554 (peptide)
peptide: SLEEEWAQIECEVYGRGCPSESFYDWFERQLG
B28: S574 (peptide)
peptide: B27 peptide with C11A, Y14W, C18A
B29: S555 (peptide)
peptide: SLEEEWAQVECEVYGRGCPSESFYDWF[dV]RQLG
modifications: cysteine pairing not given here
B30: S569 (peptide)
peptide: SLEEEWAQIEEVWGRGPSESFYDWFERQLG
notes: label printed as 3569; also called 3569
B31: S532 (peptide)
peptide: SLEEEWAWVECEVYGRGCPSGSLDESFYDWFERQL
B32: S520 (peptide)
peptide: SIEEEWAQIKCDVWGRGCPPGLLDESFYHWFDRQLR
B33: S553 (peptide)
peptide: SLEEEWAQVECEVYGRGCPPGLLDESFYHWFDRQLR
B34: S547 (peptide)
peptide: SLEEEWAQVECEVYGRGCPS
B35: S548 (peptide)
peptide: SLEEEWAQVECEVWGRGCPS
B36: S481 (peptide)
peptide: HHHHHHKLDQEWAWVQCEVYGRGCPSESFYDWFERQLG
B37: S582 (peptide)
peptide: SLEEEWAQIECEVWGRGCPKGFYGWFRRRG
B38: S546 (peptide)
peptide: SLEEEWAQVECEV[Bpa]GRGCPSGSLDESFYDWFERQ[Bpa]GK(Biotin)
modifications: not fully specified (bridges); printed as SLEEEWAQVECEV-Bpa-GRGCPSGSLDESFYDWFERQ-Bpa-GK(Biotin); cysteine pairing not given here
B39: S531 (peptide)
peptide: SLEEEWAQVECEVYGRGCPSFYDWFERQL
B40: S511 (peptide)
peptide: WLDQEWAWVQCEVYGRGCPSGGSGGSGRVDWLQRNANFYDWFVAELG
B41: S562 (peptide)
peptide: SIEEEWAQIKCDVWGRCSESFYDWFERQL
B42: S600 (peptide)
peptide: Ac-SIEEEWAQIKCDVWGRGSESFYDWFERQL
B43: S573 (peptide)
peptide: SLEEEWAQIESEVWGRSESFYDWFERQLG
B44: S527 (peptide)
peptide: H[Ac6c]CAQE[dW]GSEL[Tic]QCSGSESFYDWFERQL
modifications: not fully specified (bridges); printed as H-Acy-CAQEwGSEL-Tic-QCSGSESFYDWFERQL; cysteine pairing not given here
notes: leading H- read as His; it may mean a free N-terminus
B45: S549 (peptide)
peptide: SLEEEWAQVECEVYGRGCSGSLDESFYDWFERQLG
B46: S559 (peptide)
peptide: SLEEEWAQIECEVWGRGCSESFYDWFERQL
B47: S556 (peptide)
peptide: B46 peptide with L2I, E10K, E12D
B48: S563 (peptide)
peptide: SLEEEWAQIQCEVWGR[dN][dC]SESFYDWFERQL
modifications: cysteine pairing not given here
B49: S561 (peptide)
peptide: SLEEEWAQIECEVWGRGCSGSLDESFYDWFERQL
B50: S550 (peptide)
peptide: GSLDESFYDWFERQLGK
modifications: N-terminal acetyl; POX (not explained) between G16 and K17
B51: S568 (peptide)
peptide: Ac-SIEEEWAQIKCDVWGRGPSESFYDWFERQLG
B52: S512 (peptide)
peptide: WLDQEWAWVQCEVYGRGCPSGGSGGSSQAGSAFYAWFDQVLRTV
B53: S518 (peptide)
peptide: RLEEEWAWVQCEVYGRGCPSGSLDESFYDWFERQLG
B54: S551 (peptide)
peptide: SLEEEWAQVEAEVYGRGAPSGSLDESFYDWFERQLG
B55: S537 (peptide)
peptide: B54 peptide with E4H, A11C, A18C
B56: S540 (peptide)
peptide: B53 peptide with R1S, W8Q, Q10K
B57: S541 (peptide)
peptide: B54 peptide with A11C, Y14W, A18C
B58: S539 (peptide)
peptide: B54 peptide with E4L, A11C, A18C
B59: S538 (peptide)
peptide: B54 peptide with E4Q, A11C, A18C
B60: S542 (peptide)
peptide: SLEEEWAQVECEVYGRGCPSGSLDESFYH[dW]FERQLG
modifications: cysteine pairing not given here

target: human insulin receptor (HIR) (human, UniProt P06213 28-1382, limits assumed); test: 125I-insulin competition, solubilised HIR

Row | Binder | Kd [nM]
1 | B1 | 0.067
2 | B2 | 56
3 | B3 | 0.62
4 | B4 | 3
5 | B5 | 13
6 | B6 | 2.6
7 | B7 | 2.5
8 | B8 | 0.083
9 | B9 | 2.1
10 | B10 | 0.012
11 | B11 | 0.062
12 | B12 | 27
13 | B13 | 0.013
14 | B14 | 9.3
15 | B15 | 4.8
16 | B16 | 0.73
17 | B17 | 1.6
18 | B18 | 4.3
19 | B19 | 0.02
20 | B20 | 0.008

Row | Binder | Kd [nM]
21 | B21 | 0.019
22 | B22 | 0.004
23 | B23 | 0.6
24 | B24 | 0.01
25 | B25 | 0.012
26 | B26 | 57
27 | B27 | 0.0064
28 | B28 | 0.0092
29 | B29 | 0.057
30 | B30 | 0.15
31 | B31 | 0.037
32 | B32 | 0.02
33 | B33 | 0.0073
34 | B34 | 49
35 | B35 | 4.1
36 | B36 | 13
37 | B37 | 2.5
38 | B38 | 26
39 | B39 | 0.075
40 | B40 | 3.8

Row | Binder | Kd [nM]
41 | B41 | 0.018
42 | B42 | 0.0076
43 | B43 | 0.036
44 | B44 | 2.4
45 | B45 | 0.013
46 | B46 | 0.021
47 | B47 | 0.032
48 | B48 | 0.014
49 | B49 | 0.015
50 | B50 | 40
51 | B51 | 0.0043
52 | B52 | 28
53 | B53 | 0.16
54 | B54 | 0.072
55 | B55 | 0.044
56 | B56 | 0.013
57 | B57 | 0.0078
58 | B58 | 0.098
59 | B59 | 0.038
60 | B60 | 0.027
